Results published in patent publication EP3025729B1 (Glaxo Group Limited, dated 2018).

Key:
[1] = target: T1, human serum amyloid P component (SAP) (human, UniProt P02743 20-223); experiment: ELISA, human SAP directly immobilised at 1 µg/mL
T1 construct: Purified from human material; In some assays it stood denatured (reduced SDS-PAGE); this is said under assay; also called human SAP; homo sapiens SAP

cynomologus monkey SAP = target: T2, cynomologus monkey SAP (cynomolgus monkey, UniProt A0A7N9DA00 20-223); experiment: Biacore, cyno SAP amine-coupled on C1 chip, culture supernatant
T2 construct: also called cyno SAP; cynomolgus monkey serum amyloid P component
T2 sequence (A0A7N9DA00 entry or part of it): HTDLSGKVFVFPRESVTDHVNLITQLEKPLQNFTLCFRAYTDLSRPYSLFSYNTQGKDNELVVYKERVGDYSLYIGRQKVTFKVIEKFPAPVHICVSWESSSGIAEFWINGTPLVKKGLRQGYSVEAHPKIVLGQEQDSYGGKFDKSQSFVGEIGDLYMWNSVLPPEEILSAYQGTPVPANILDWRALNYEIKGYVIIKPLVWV

T1 sequence (P02743 20-223, form in doubt): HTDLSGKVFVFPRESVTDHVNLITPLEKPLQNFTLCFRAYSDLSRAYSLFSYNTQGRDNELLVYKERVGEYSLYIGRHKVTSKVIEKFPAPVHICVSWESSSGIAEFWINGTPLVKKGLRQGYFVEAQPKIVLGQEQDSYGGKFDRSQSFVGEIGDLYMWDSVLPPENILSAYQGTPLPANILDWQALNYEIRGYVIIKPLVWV

Binder	fold loss of human SAP binding activity compared to SAP-K chimera [1] [fold]	binding result (cynomologus monkey SAP)
SAP-K H1L0 humanised antibody (antibody, V domains shown) VH: QVQLVQSGAEVKKPGSSVKVSCKASGYTFTSYWMHWVRQAPGQGLEWMGMIHPNSVNTNYNEKFKSRVTITADKSTSTAYMELSSLRSEDTAVYYCARRNDYYWYFDVWGQGTLVTVSS VL: DIQMTQSPSSLSASVGDRVTITCKASQNVNSNVAWYQQKPGKAPKLLIYSASYRYSGVPSRFSGSGSGTDFTLTISSLQPEDFATYYCQQCNNYPFTFGQGTKLEIK	~2	
SAP-K H0L0 humanised antibody (antibody, V domains shown, also called SAP-K HOLO) VH: QVQLVQSGAEVKKPGSSVKVSCKASGGTFSSYWMHWVRQAPGQGLEWMGMIHPNSVNTNYNEKFKSRVTITADKSTSTAYMELSSLRSEDTAVYYCARRNDYYWYFDVWGQGTLVTVSS VL: DIQMTQSPSSLSASVGDRVTITCKASQNVNSNVAWYQQKPGKAPKLLIYSASYRYSGVPSRFSGSGSGTDFTLTISSLQPEDFATYYCQQCNNYPFTFGQGTKLEIK	~2	no binding
SAP-K H2L0 humanised antibody (antibody, V domains shown) VH: QVQLVQSGAEVKKPGSSVKVSCKASGYTFTSYWMHWVRQAPGQGLEWIGMIHPNSVNTNYNEKFKSRATITADKSTSTAYMELSSLRSEDTAVYYCARRNDYYWYFDVWGQGTLVTVSS VL: DIQMTQSPSSLSASVGDRVTITCKASQNVNSNVAWYQQKPGKAPKLLIYSASYRYSGVPSRFSGSGSGTDFTLTISSLQPEDFATYYCQQCNNYPFTFGQGTKLEIK	~2	
